Experiments:
Test in all cases: holdup assay
Parameters in all cases: key: below the threshold = too weak to quantify, mostly under pKd 3.1 to 4
Conditions in all cases: plain residues with an end cap or a label only (N-terminal biotin on a linker: ttds)
APBA2_1, Q99767 = biological target: T1, APBA2_1, Q99767
T1 sequence (Q99767 563-664, limits assumed, looked up): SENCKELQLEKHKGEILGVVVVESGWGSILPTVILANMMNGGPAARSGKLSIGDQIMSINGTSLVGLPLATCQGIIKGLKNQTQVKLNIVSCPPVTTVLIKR

ARHGEF11, O15085 = biological target: T2, ARHGEF11, O15085
T2 sequence (O15085 42-136, limits assumed, looked up): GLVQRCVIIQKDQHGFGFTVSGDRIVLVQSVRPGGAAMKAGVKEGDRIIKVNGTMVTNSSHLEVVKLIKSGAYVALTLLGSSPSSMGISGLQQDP

DLG1_1, Q12959 = biological target: DLG1_1, Q12959
DLG3_1, Q92796 = biological target: T3, DLG3_1, Q92796
T3 sequence (Q92796 125-227, limits assumed, looked up): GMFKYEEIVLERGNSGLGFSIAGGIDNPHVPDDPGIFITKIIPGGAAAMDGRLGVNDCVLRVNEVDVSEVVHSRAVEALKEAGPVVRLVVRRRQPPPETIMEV

DLG4_1, P78352 = biological target: DLG4_1, P78352
DVL3, Q92997 = biological target: T4, DVL3, Q92997
T4 sequence (Q92997 244-331, limits assumed, looked up): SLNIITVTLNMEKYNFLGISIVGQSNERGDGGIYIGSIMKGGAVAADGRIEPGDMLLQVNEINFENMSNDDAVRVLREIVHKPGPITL

FRMPD2_3, Q68DX3 = biological target: FRMPD2_3, Q68DX3
FRMPD4, Q14CM0 = biological target: FRMPD4, Q14CM0
GRIP1_3, Q9Y3R0 = biological target: T5, GRIP1_3, Q9Y3R0
T5 sequence (Q9Y3R0 247-346, limits assumed, looked up): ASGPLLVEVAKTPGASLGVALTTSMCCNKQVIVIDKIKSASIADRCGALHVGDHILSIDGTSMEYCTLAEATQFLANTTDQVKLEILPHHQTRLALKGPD

GRIP1_5, Q9Y3R0 = biological target: T6, GRIP1_5, Q9Y3R0
T6 sequence (Q9Y3R0 568-668, limits assumed, looked up): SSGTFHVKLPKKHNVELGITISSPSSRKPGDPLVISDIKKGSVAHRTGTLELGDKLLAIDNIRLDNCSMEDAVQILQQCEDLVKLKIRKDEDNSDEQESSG

GRIP2_5, Q9C0E4 = biological target: GRIP2_5, Q9C0E4
HTRA4, P83105 = biological target: T7, HTRA4, P83105
T7 sequence (P83105 378-476, limits assumed, looked up): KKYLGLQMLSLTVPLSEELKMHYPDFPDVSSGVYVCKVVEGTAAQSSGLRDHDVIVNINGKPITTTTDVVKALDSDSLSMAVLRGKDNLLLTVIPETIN

Inadl_2, Q8NI35 = biological target: Inadl_2, Q8NI35
Inadl_4, Q8NI35 = biological target: Inadl_4, Q8NI35
Inadl_5, Q8NI35 = biological target: Inadl_5, Q8NI35
Inadl_6, Q8NI35 = biological target: Inadl_6, Q8NI35
LDB3, O75112 = biological target: LDB3, O75112
LNX2_2, Q8N448 = biological target: T8, LNX2_2, Q8N448
T8 sequence (Q8N448 334-432, limits assumed, looked up): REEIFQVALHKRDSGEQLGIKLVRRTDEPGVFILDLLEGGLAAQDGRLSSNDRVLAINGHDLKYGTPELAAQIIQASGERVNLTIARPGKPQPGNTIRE

MAGI1_1, Q96QZ7 = biological target: MAGI1_1, Q96QZ7
MAGI1_2, Q96QZ7 = biological target: MAGI1_2, Q96QZ7
MAGI2_4, Q86UL8 = biological target: MAGI2_4, Q86UL8
MAGI2_6, Q86UL8 = biological target: MAGI2_6, Q86UL8
NHERF3_1, Q5T2W1 = biological target: T9, NHERF3_1, Q5T2W1
T9 sequence (Q5T2W1 4-100, limits assumed, looked up): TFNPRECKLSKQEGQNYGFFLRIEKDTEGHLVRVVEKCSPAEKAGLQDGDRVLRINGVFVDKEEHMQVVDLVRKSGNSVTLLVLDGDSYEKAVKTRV

PDZRN4_1, Q6ZMN7 = biological target: PDZRN4_1, Q6ZMN7
RHPN1, Q8TCX5 = biological target: T10, RHPN1, Q8TCX5
T10 sequence (Q8TCX5 508-602, limits assumed, looked up): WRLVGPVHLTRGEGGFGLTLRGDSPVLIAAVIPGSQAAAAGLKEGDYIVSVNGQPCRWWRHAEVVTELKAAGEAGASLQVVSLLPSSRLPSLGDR

SNTG1, Q9NSN8 = biological target: T11, SNTG1, Q9NSN8
T11 sequence (Q9NSN8 52-150, limits assumed, looked up): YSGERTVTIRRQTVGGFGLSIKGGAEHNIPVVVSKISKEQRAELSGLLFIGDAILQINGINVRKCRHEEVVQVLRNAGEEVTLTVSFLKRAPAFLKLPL

TJP2_1, Q9UDY2 = biological target: TJP2_1, Q9UDY2
Sequence of TJP2_1, Q9UDY2 (Q9UDY2 24-128): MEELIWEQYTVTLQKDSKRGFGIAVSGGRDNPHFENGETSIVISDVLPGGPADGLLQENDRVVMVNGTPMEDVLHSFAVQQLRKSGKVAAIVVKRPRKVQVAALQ

Sequence of MAGI2_4, Q86UL8 (Q86UL8 772-865): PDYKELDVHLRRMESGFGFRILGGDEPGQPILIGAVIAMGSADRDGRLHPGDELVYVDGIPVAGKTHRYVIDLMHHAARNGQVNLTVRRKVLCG
Sequence of MAGI1_2, Q96QZ7 (Q96QZ7 456-580): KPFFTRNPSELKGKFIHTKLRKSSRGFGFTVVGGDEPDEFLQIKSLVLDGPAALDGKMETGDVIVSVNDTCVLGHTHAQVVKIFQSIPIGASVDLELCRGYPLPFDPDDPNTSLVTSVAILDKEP
Sequence of DLG4_1, P78352 (P78352 62-152): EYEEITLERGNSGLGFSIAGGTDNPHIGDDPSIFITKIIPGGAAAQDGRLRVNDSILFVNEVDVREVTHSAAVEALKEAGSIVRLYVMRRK
Sequence of FRMPD2_3, Q68DX3 (Q68DX3 1073-1166): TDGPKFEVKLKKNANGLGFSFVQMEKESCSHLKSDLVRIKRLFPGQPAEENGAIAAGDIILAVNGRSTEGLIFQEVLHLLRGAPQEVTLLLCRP
Sequence of MAGI2_6, Q86UL8 (Q86UL8 1141-1229): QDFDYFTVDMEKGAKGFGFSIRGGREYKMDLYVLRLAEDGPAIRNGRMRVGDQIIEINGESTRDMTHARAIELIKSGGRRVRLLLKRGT
Sequence of Inadl_4, Q8NI35 (Q8NI35 547-651): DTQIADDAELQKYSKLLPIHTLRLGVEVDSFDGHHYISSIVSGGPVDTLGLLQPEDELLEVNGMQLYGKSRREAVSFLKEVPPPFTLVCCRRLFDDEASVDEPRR
Sequence of FRMPD4, Q14CM0 (Q14CM0 67-160): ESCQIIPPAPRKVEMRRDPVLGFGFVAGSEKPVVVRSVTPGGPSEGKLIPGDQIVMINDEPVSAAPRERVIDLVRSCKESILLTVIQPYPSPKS
Sequence of Inadl_6, Q8NI35 (Q8NI35 1058-1167): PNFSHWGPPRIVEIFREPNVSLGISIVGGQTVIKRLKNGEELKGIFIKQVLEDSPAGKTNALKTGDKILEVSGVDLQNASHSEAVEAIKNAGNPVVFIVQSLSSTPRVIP
Sequence of PDZRN4_1, Q6ZMN7 (Q6ZMN7 213-318): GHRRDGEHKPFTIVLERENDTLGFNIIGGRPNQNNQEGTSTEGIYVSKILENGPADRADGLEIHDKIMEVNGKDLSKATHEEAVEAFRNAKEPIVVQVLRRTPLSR
Sequence of Inadl_5, Q8NI35 (Q8NI35 673-780): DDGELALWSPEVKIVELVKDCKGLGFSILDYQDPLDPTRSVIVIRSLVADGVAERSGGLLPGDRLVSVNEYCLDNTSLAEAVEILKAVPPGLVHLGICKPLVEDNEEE
Sequence of Inadl_2, Q8NI35 (Q8NI35 238-335): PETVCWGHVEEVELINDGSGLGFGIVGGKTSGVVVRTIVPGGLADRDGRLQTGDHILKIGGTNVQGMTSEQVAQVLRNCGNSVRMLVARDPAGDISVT
Sequence of GRIP2_5, Q9C0E4 (Q9C0E4 544-642): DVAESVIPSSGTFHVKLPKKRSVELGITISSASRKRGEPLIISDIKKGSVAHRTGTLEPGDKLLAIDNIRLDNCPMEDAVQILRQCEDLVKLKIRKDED
Sequence of LDB3, O75112 (O75112 1-94): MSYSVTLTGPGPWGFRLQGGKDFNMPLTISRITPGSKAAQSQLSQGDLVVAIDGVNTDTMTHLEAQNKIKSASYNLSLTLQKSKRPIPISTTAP
Sequence of MAGI1_1, Q96QZ7 (Q96QZ7 1-106): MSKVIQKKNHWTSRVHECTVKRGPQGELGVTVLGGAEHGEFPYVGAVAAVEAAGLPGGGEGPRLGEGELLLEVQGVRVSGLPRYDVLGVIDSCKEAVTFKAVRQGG

B1: SLCO1C1, Q9NYB5 (peptide)
chain: NYWPGKETQL
For B1, the pKd (APBA2_1, Q99767) was “below the threshold”, the pKd (ARHGEF11, O15085) was 4.53 and the pKd (DLG1_1, Q12959) was 4.74. The pKd (DLG3_1, Q92796) was 3.9, the pKd (DLG4_1, P78352) was 4.29 and the pKd (DVL3, Q92997) was “below the threshold”. For the same binder, the pKd (FRMPD2_3, Q68DX3) was “below the threshold”, the pKd (FRMPD4, Q14CM0) was 4.35 and the pKd (GRIP1_3, Q9Y3R0) was “below the threshold”. The pKd (GRIP1_5, Q9Y3R0) was “below the threshold”, the pKd (GRIP2_5, Q9C0E4) was “below the threshold” and the pKd (HTRA4, P83105) was “below the threshold”. The pKd (Inadl_2, Q8NI35) was “below the threshold”, the pKd (Inadl_4, Q8NI35) was “below the threshold” and the pKd (Inadl_5, Q8NI35) was “below the threshold”. The pKd (Inadl_6, Q8NI35) was 4.61, the pKd (LDB3, O75112) was “below the threshold” and the pKd (LNX2_2, Q8N448) was “below the threshold”. For the same binder, the pKd (MAGI1_1, Q96QZ7) was “below the threshold”, the pKd (MAGI1_2, Q96QZ7) was 4.15 and the pKd (MAGI2_4, Q86UL8) was “below the threshold”. It also gave a pKd (MAGI2_6, Q86UL8) of 4.42, a pKd (NHERF3_1, Q5T2W1) of 5.4 and a pKd (PDZRN4_1, Q6ZMN7) of 5.47. The pKd (RHPN1, Q8TCX5) was 5.14, the pKd (SNTG1, Q9NSN8) was 5.39 and the pKd (TJP2_1, Q9UDY2) was “below the threshold”.

B2: CFTR, P13569 (peptide)
chain: TEEEVQDTRL
With B2 the pKd (APBA2_1, Q99767) was “below the threshold”, the pKd (ARHGEF11, O15085) was “below the threshold” and the pKd (DLG1_1, Q12959) was “below the threshold”. The pKd (DLG3_1, Q92796) was “below the threshold”, the pKd (DLG4_1, P78352) was “below the threshold” and the pKd (DVL3, Q92997) was “below the threshold”. The pKd (FRMPD2_3, Q68DX3) was “below the threshold”, the pKd (FRMPD4, Q14CM0) was 4.66 and the pKd (GRIP1_3, Q9Y3R0) was “below the threshold”. The pKd (GRIP1_5, Q9Y3R0) was “below the threshold”, the pKd (GRIP2_5, Q9C0E4) was “below the threshold” and the pKd (HTRA4, P83105) was “below the threshold”. For the same binder, the pKd (Inadl_2, Q8NI35) was “below the threshold”, the pKd (Inadl_4, Q8NI35) was “below the threshold” and the pKd (Inadl_5, Q8NI35) was “below the threshold”. The pKd (Inadl_6, Q8NI35) was “below the threshold”, the pKd (LDB3, O75112) was “below the threshold” and the pKd (LNX2_2, Q8N448) was “below the threshold”. The pKd (MAGI1_1, Q96QZ7) was “below the threshold”, the pKd (MAGI1_2, Q96QZ7) was “below the threshold” and the pKd (MAGI2_4, Q86UL8) was “below the threshold”. The pKd (MAGI2_6, Q86UL8) was “below the threshold”, the pKd (NHERF3_1, Q5T2W1) was 4.78 and the pKd (PDZRN4_1, Q6ZMN7) was 3.99. For the same binder, the pKd (RHPN1, Q8TCX5) was 4.12, the pKd (SNTG1, Q9NSN8) was “below the threshold” and the pKd (TJP2_1, Q9UDY2) was “below the threshold”.

B3: PTEN, P60484 (peptide)
chain: DEDQHTQITKV
In the case of B3, the pKd (APBA2_1, Q99767) is reported as “below the threshold”, the pKd (ARHGEF11, O15085) is reported as 4.33 and the pKd (DLG1_1, Q12959) is reported as 3.64. For the same binder, the pKd (DLG3_1, Q92796) was “below the threshold”, the pKd (DLG4_1, P78352) was 3.82 and the pKd (DVL3, Q92997) was “below the threshold”. The pKd (FRMPD2_3, Q68DX3) was “below the threshold”, the pKd (FRMPD4, Q14CM0) was “below the threshold” and the pKd (GRIP1_3, Q9Y3R0) was “below the threshold”. For the same binder, the pKd (GRIP1_5, Q9Y3R0) was 3.72, the pKd (GRIP2_5, Q9C0E4) was “below the threshold” and the pKd (HTRA4, P83105) was 3.62. For the same binder, the pKd (Inadl_2, Q8NI35) was “below the threshold”, the pKd (Inadl_4, Q8NI35) was “below the threshold” and the pKd (Inadl_5, Q8NI35) was “below the threshold”. For the same binder, the pKd (Inadl_6, Q8NI35) was 3.82, the pKd (LDB3, O75112) was “below the threshold” and the pKd (LNX2_2, Q8N448) was 4.25. For the same binder, the pKd (MAGI1_1, Q96QZ7) was “below the threshold”, the pKd (MAGI1_2, Q96QZ7) was “below the threshold” and the pKd (MAGI2_4, Q86UL8) was 3.64. The pKd (MAGI2_6, Q86UL8) was 4.07, the pKd (NHERF3_1, Q5T2W1) was 4.03 and the pKd (PDZRN4_1, Q6ZMN7) was 3.62. For the same binder, the pKd (RHPN1, Q8TCX5) was 4.36, the pKd (SNTG1, Q9NSN8) was 4.01 and the pKd (TJP2_1, Q9UDY2) was “below the threshold”.

B4: MAS1, P04201 (peptide)
chain: CNTVTVETVV
With B4 the pKd (APBA2_1, Q99767) was “below the threshold”, the pKd (ARHGEF11, O15085) was “below the threshold” and the pKd (DLG1_1, Q12959) was 4.06. For the same binder, the pKd (DLG3_1, Q92796) was 3.51, the pKd (DLG4_1, P78352) was 3.98 and the pKd (DVL3, Q92997) was “below the threshold”. For the same binder, the pKd (FRMPD2_3, Q68DX3) was 3.57, the pKd (FRMPD4, Q14CM0) was “below the threshold” and the pKd (GRIP1_3, Q9Y3R0) was “below the threshold”. The pKd (GRIP1_5, Q9Y3R0) was 3.55, the pKd (GRIP2_5, Q9C0E4) was “below the threshold” and the pKd (HTRA4, P83105) was “below the threshold”. The pKd (Inadl_2, Q8NI35) was “below the threshold”, the pKd (Inadl_4, Q8NI35) was “below the threshold” and the pKd (Inadl_5, Q8NI35) was “below the threshold”. The pKd (Inadl_6, Q8NI35) was “below the threshold”, the pKd (LDB3, O75112) was “below the threshold” and the pKd (LNX2_2, Q8N448) was 4.13. The pKd (MAGI1_1, Q96QZ7) was “below the threshold”, the pKd (MAGI1_2, Q96QZ7) was “below the threshold” and the pKd (MAGI2_4, Q86UL8) was 3.49. The pKd (MAGI2_6, Q86UL8) was “below the threshold”, the pKd (NHERF3_1, Q5T2W1) was 3.74 and the pKd (PDZRN4_1, Q6ZMN7) was “below the threshold”. The pKd (RHPN1, Q8TCX5) was 4.09, the pKd (SNTG1, Q9NSN8) was 3.86 and the pKd (TJP2_1, Q9UDY2) was “below the threshold”.

— article PMC9482650, “Quantitative fragmentomics allow affinity mapping of interactomes” (Nature Communications, 2022)
